From patent US20230295345A1 (published 2023) come the findings set out here.

Assay [1] addresses T1, mouse TMPRSS6 expressed on HEK293T cells (MoTMPRSS6-(His)6) (UniProt Q9DBI0 1-811).
T1 chain: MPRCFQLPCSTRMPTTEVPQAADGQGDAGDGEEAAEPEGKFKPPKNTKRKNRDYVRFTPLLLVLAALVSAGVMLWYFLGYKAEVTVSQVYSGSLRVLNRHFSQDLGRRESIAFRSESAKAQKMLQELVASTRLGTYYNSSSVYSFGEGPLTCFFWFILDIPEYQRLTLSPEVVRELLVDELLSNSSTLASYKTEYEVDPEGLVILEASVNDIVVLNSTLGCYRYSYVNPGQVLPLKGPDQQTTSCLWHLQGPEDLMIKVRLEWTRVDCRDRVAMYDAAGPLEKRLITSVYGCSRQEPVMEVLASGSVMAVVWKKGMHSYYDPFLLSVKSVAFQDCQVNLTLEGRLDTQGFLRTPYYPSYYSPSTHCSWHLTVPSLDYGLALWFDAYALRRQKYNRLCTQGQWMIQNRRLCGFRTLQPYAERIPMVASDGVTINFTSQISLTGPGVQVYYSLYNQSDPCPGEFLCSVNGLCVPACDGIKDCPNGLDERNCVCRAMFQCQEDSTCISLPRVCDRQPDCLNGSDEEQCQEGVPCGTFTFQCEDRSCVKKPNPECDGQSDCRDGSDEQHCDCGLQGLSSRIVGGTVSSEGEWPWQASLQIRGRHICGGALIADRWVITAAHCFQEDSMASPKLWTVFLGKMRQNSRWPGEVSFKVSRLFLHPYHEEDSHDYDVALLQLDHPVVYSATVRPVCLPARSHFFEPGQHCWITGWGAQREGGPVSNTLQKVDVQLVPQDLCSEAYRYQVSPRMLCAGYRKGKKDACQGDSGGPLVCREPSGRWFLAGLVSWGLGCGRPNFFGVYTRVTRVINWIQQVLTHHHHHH
Description: cell surface ELISA.

Assay [2] concerns the target T2, cynomolgus monkey TMPRSS6 expressed on HEK293T cells (CynoTMPRSS6-(His)6).
T2 chain: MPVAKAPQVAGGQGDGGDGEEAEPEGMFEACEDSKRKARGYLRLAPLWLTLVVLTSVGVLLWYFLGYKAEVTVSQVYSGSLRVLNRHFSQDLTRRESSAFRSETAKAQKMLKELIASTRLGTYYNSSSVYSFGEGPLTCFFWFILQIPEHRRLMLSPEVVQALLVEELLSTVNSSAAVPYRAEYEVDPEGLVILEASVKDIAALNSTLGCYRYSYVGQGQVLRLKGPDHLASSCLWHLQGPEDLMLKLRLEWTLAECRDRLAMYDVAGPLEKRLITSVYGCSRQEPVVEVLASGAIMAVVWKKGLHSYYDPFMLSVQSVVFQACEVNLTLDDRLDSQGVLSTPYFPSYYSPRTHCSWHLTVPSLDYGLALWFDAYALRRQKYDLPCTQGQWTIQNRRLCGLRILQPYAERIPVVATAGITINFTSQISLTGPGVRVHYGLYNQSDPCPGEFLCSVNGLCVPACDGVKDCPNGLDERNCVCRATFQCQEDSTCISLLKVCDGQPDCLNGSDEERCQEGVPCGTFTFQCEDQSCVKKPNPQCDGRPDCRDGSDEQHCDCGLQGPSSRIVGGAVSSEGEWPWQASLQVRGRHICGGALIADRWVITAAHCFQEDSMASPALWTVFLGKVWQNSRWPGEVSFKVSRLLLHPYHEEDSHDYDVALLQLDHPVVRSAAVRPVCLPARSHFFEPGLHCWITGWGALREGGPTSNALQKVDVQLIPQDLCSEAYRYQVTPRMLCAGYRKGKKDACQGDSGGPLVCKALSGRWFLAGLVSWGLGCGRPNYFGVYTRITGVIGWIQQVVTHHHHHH
Description: cell surface ELISA. (ELISA stands for enzyme-linked immunosorbent assay.)

For assay [3], the target named is T1, mouse TMPRSS6 expressed on HEK293T …. Description: cell surface ELISA.
Assay [4] addresses T2, cynomolgus monkey TMPRSS6 expressed on …. Description: cell surface ELISA.
For assay [5], the target named is T3, human TMPRSS6 (matriptase-2) expressed on HEK293T cells (HuTMPRSS6-(His)6) (UniProt Q8IU80 10-811).
T3 chain: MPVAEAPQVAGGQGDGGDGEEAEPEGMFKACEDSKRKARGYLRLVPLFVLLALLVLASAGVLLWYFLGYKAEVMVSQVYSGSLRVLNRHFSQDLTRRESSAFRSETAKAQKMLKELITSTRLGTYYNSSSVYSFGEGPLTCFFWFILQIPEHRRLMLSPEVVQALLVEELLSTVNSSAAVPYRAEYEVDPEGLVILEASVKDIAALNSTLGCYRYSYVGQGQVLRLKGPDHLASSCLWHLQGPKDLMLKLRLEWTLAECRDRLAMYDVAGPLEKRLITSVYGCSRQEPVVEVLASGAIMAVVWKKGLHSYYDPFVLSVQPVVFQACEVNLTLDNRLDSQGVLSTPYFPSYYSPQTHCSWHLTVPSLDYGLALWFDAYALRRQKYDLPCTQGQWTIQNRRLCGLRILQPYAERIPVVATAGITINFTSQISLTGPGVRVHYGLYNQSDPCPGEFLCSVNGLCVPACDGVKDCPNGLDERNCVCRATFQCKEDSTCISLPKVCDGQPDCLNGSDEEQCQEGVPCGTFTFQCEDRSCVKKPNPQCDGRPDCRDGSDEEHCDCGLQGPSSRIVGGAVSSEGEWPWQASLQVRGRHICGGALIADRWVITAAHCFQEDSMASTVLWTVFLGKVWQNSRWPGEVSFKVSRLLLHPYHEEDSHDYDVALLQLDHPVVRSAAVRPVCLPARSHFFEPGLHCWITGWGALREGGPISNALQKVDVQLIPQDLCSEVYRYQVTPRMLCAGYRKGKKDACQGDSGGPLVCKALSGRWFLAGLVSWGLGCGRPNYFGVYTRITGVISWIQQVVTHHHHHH
Description: FACS. (In general: A flow cytometer gives signals particle by particle.)

The target in assay [6] is T3, human TMPRSS6 (matriptase-2) expressed …. Description: cell surface ELISA.

Where two headings read alike, the source gives them in different places.

B1: hzMWTx-003Var anti-TMPRSS6 antibody (antibody, V domains shown)
VH: QVQLVQSGAEVKKPGASVKVSCKASGFNIEDYYMHWVRQAPGQRLEWMGRIDPEDAETTYSPKFQGRVTIIPDTSANTAYMELSSLRSEDTAVYYCARSIYLDPMDYWGQGTLVTVSS
VL: DIQMTQSPKSLSASVGDRVTITCRASQDVTTALAWYQQKPGQSPKLLIYWATTRHSGVPSRFSGSGSGTDFTLTISSLQPEDFATYYCQQHYSTPYTFGQGTKLEIKR
In the case of B1, the half-maximal effective concentration (EC50) in assay [1] is 0.31 µg/mL; in assay [2], 0.03 µg/mL.

B2: hzMWTx-001Var anti-TMPRSS6 antibody (antibody, V domains shown)
VH: EVQLVQSGAEVKKPGASVKVSCKASGYTFTSYWITWVRQAPGQRLEWIGNIYPGSGSTYYNEKFKSKATITRDTSSRTAYMELSSLRSEDTAVYYCAPYDADYAMDYWGQGTLVTVSS
VL: DIQMTQSPSSLSASVGDRVTITCKASQDISNYLSWFQQKPGKAPKLLIYRANRLVEGVPSRFSGSGSGTDFTLTISSLQPEDFATYFCLQYDEFPLTFGGGTKVEIKR
Consider B2, for which the results for the half-maximal effective concentration (EC50) in assay [1] and in assay [2] were 0.03 µg/mL and 0.003 µg/mL, respectively.

B3: hzMWTx-002Var anti-TMPRSS6 antibody (antibody, V domains shown)
VH: EVQLVQSGAEVKKPGASVKVSCKASGFNIKDYYIHWVRQATGQGLEWMGRIDPEDAESEYAPKFQGRVTITADTSTDTAYMELSSLRSEDTAVYYCTRGDSMMVTYFDYWGQGTLVTVSS
VL: DIQMTQSPSSLSASVGDRVTITCKASQDVSTAVAWYQQKPGKAPKLLIYWAFTRHTGVPSRFSGSGSGTDYALTISSLQPEDFATYYCQQHYRSPWTFGGGTKVEIKR
For the molecule B3, in assay [2], the EC50 came out at 0.06 µg/mL.

B4: MWTx-003 anti-TMPRSS6 antibody (antibody, V domains shown)
VH: EVQLQQSGAELVKPGASVKLSCTASGFNIEDYYIHWVKERTEQGLEWIGRIDPEDGETTYAPQFQGKATIIPDTSSNTAYMQLSSLTSEDAAVYYCARSIYLDPMDYWGQGTSVTVSS
VL: DIVMTQSHKFMSTSVGDRVSITCKASQDVTTAVAWYQQKPGQSPKILIYWATTRHTGVPDRFTGSISGTTYILTISSVQAEDLALYYCQQHYSTPYTFGGGTKLEIKR
B4: the EC50 in assay [3] worked out at 0.07 µg/mL; in assay [4], 0.09 µg/mL; in assay [5], 0.2 µg/mL; in assay [6], 0.05 µg/mL.

B5: MWTx-001 anti-TMPRSS6 antibody (antibody, V domains shown)
VH: QVQLQQPGAELAKPGASVKMSCKASGYTFTSYWITWVKQRPGQDLEWIGNIYPGSGSTYYNEKFKSKATLTVDTSSRTAYMQLSSLTSADSAVYYCAPYDSDYAMDYWGQGTSVTVSS
VL: DIKMTQSPSSMYASLGERVTITCKASQDINNYLSWFQQKPGKSPKTLIYRANRLVDGVPSRVSGSGSGQDYSLTISSLEYEDVGIYFCLQYDEFPLTFGAGTKLELKR
B5: the EC50 in assay [3] came out at 0.25 µg/mL; in assay [4], 0.1 µg/mL; in assay [5], 1 µg/mL; in assay [6], 0.2 µg/mL.

B6: MWTx-002 anti-TMPRSS6 antibody (antibody, V domains shown)
VH: EVQLQQSGAELVKPGASVKLSCTASGFNIKDYYIHWVKERTEQGLEWFGRIDPEDGESEYAPKFQGKATLTADTSSNTAYLQLSSLTSEDTAVYYCTRGDSMMVTYFDYWGQGTTLTVSS
VL: DIVMTQSHKFMSTSVGDRVSITCKASQDVSTAVAWYQQKPGQSPKLLIYWAFTRHTGVPDRFTSTGSGTDYALTISSVQAEDLALYYCQQHYRSPWTFGGGTKLEIKR
In the case of B6, the concentration giving a half-maximal response (EC50) in assay [4] was 0.06 µg/mL; in assay [5], 0.2 µg/mL; in assay [6], 0.04 µg/mL.

As a reminder, the EC50 is the midpoint of the concentration-response curve.
